Results: a protein production outcome set (Wang et al. 2014)

assay: label from the status in PepcDB records

Sequence	protein production
MLFGDSVAIAFAQVSIHSRSKGHSAVAAAAYRSGARLYDDRIGRAYDFSKRDDVAFSEILLPDGTTDSFLERDYLWNEVERAENRSNSQLCKDFVLALPRELNLEQQIELAKRFARTHFVEKGLPADIAIHDHGDGNPHAHILIPTRRLENNRFSKYKARDLNPVFAKGFLVEQDYWGEQWREMQNEFFIENNLDLQVDANHLIAERHRGKHHNANAHYLLEENQLIQQARMELTRDNIDLVIDHLSTQYSVFTRRDVERLLFKTFQASDSPQEYLQFVERVLGHQDLVALGDNNKGEPSFTTRTHLMQEAQLLHDIEAMMVSKNHVVHQPIDSLAQQYRLSEEQYEAFRYITQSPDISVVIGRPGTGKSYLLKPLNEYYIQAGMEVIGAALSGKVAKALQAETGITSSTIKSLSYRLANDMMQLSDKHVLIIDEAGMVDFSSMGYLIKEAHKAGSKVVLIGDPDQLKPIQKGEIFRGIAARTGYIELENIKRQQDLGDRQASLNLAKGDIDKAIQHYQDKGAITITDTKLQAIEQVVADWKQDLESTNMADSIMLSYTRKAVNHLNDLAREALIVENKIGEENIVYQGLERSLKISTGERLLLRENNKVLGVRNGDTATVKEINVQQMKIQLDSGELLIIPKEYKALDYAYALTVHKSQGMTAKKVRVLIDSKYWDRNLSFVAMTRHKEQLNIYADKENHPTEQALKQTLSRSSTKDNVIDWPLDFAIRAGFDSDSLISRALNHIVGVGHKIKQAYNFIVNYEASLLKARHQERFQDIGQAIADAKQEALKVDTKEFESNDCKTSEQSFGILKKDFPQLVELETLIKRRQRMTGYFAEKTDKQIMALTQQLLTNKTFANQVKYQVPEFYQKLQSIDNKQKEKALLQNH	failed
MLFIFLTIAALGLSFWAQFKVKSNFEKYSKVEASSGRTGAETARRILDINGLYDVPVEPVRGTLTDHYDPTRRVVRLSEPVYYGRSISAISVASHEVGHALQHQESYGALVLRHKIFPVVNFASGVAPLLFLGGMLLGSLNLIGLGIILFSAAVFFQLITLPVEFNASSRAKQIIVSEGFIRNNEENGVNKVLSAAALTYVAAALVSLFELLRFVMIFLNGRDEN	failed
MLFKTIFYQKLQKKVTTLFNLETERVIREIENLNKNNPKVIFQAPEGLKLKVEKEIEKIKQYFKQKNINIEIYLWGNTCFGACDLIDNHVKNLNVDLIIHYGHEKLSYANPEIKTLFIPAYHIFNKDEEEKILNDIKNFIEKHKSGGKKVAIATTIQYKKLLKDFNPSIILGCRGEVKEGDVILFVGTGRFHPLMIAYKYQKEVFIYNPLSKCFDKISEEEINKFIKKRILAISKLLLNKPKKVGVVLSTKKGQCRKRVFDEIIKLLEENDVNYLPILVDNISPDILFYDVDCYIIVACPRIVLDDYILYKKPIYTPEEFKLFLKNSFKYKFDEIKEDDFLEHHHHHH	not failed
MLFLVKEIYLQHLIQFFYVGFGIFLLYLGGNLLLKSSVGIATYLKVPTLLIGVTIVSFSTSAPELFTSLVAAFKGKNEIVVSNVIGSNIINMLLALPLAGFFLKIKADFKRLKLSFMFLFLLMFLLLLLSFDFRSYSFFVTPYNRFSSFSILILFLSYLLLFYKEEKEYASLENSFQEGASNLNQSFNFIFFNLLSFAISMYFLYLGSKLLVDGALYIANNVFNVSEKLIGIILVAFGTSVPELVVSLFAIIRKESDIAFGNIIGSNIFNIGFILASSSFFRPILLQDIYILDFSIMVFITLVLFLVVKFKGVFGRGISLIFLLLYFLYNLMLFNFY	failed
MLFRHKGILYLFLSSLIISAANPVIAKLITLGNEHLVNGRNPISFCNVLFAGNFIAVLTLILIHFRELKEFQPEHLTAKNWCLIFLAALFAGFLTPTLFFLGLMYTNVINVVLISNLQIPMTLLAGWIFLGEVPNIRVTTGAFLATLGVFAIVILQYWLGGAGALTPNPEMKTGPLFIFLSSIPRSGEICIFLAVVSSTASTIIGFHALRRLPHYLFSILKMLLGLVLFFFIVISMFGWHHFADLFSPFLWEWMLFYGSVIIALRYYFSMLGMKHAKVAEVAISSSIIPLMSIIFSYLILGEVPGISQIIGGSLILFGIYVALTGKLQAPEKTEILEKPSGFSGV	failed
MLFTQALLVTLVGIIATIDYNGPLFMIHRPLVTSAMVGLVLGDFTQGVLIGSALELTWLGVTGIGGYTPPDTISGAIIGTAFGILSGQGETAGIAIAVPIAVATQQLDVLAKTLDVYFVKKADNDAKNGDYSKIGFYHYSSLVLITLFKIVPIFLAIMLGGEYVADLFAKVPPIVMQGLNSAGALLPSIGFGMLLNMMLKKNMWVFLLIGFICSVYGGMSTIGISLVGIAVAYFYDMIGSKPQETTSSSDVEEDLDL	failed
MLGAAPENCTVNELNPDRANQLRSQGFTVTEQDATAYLPNQLYDVVIMNPPFGRVKGKRFRLAGEMGTTSQIDQAIALHSLQAMKDDGRAVLILG	failed
MLGGNNDNPVPQVLMNDSQFRYQSNTSLNQLHLLGTMRAGCTIDPVNYFANDNLAPMMRLNSTRGRETENNNIMQRQQKLQISLNYNYNNNNTVVQDEVPKQNLVSTGLRLSYDDDERNSSVTSANGSITTPVYQSLGDNIRLDLNRQNDELDQFIKFRADQMAKGVRDIKQRHVTSFVTALEKDVSKKLQEKDHEIESMNKKNRELVDKIKQVAVEAQNWHYKAKYNESVVNALKVNLQQVMSHGNDNNAVGGGVADHHQMKEGFGDSEIDDEAASYNYLNIPGMPSTGMRCKLCNVKNVSVLLVPCRHLSLCKDCDVFTGVCPVCQSLKTSSVQVFFF	failed
MLGNTLVGRYQIISHLGGGGFGETFVACDTHLPGLPKCVVKKLQPQANDPATLEIARRLFDTEAQVLYKLGSCDRIPQLLAYFEEDAEFYLVQEFIPGHDLSKELTPGKVFTQDEVTILLQEILTILEFVHQQNVIHRDINPRNLLRRQDGKLILIDFGAVKQITTQIVTPTGENKSTVIIGTPGYIPGEQAQGNPKFSSDIYAVGIVAIQALTGLLPHQLEHDADTHEIIWQNHAQVSSEFARFIDKMVCYDFRQRYAAATTALQALTELTQPASNTIAITPTLPPAKFRFNHTKKSIFIKLLLAILLTSATGIASVFVVNSINSNNATDLAKKGNTFFELQRYKDALSAYEQAVDIRPDYAPAWQGKGKTLFRLKQYQDALTAYDKAIQIQPDYVEAWSGRGFSLQNLQRYSEAIASFDKALQLNENYPEVWNARGEAFSNLKQYDQAIKSYDKAIEFNSDAYESFYNKGLALQSMKEYNEAINAYNKAIEIKSDYERAWYNLGNSLVNLNRYEDAFKAYDKAVQYKTDYAIAWLSRGNVLIILRRYPEALESFNQVIKFNPNNYQAWYGRGWSQHQNQRYAEAIESYKKAATIKPSNYEIWYSLGNSQYILQQYQEAIASYNKAVRYRPKHIESWYSRGNALFSLKQYKEAIASYEQAIKHKPDYSQAINARDEAQRQLQAATPKPVVIPVMPTPEFTNPPQDN	failed
MLGVILLYVGMVLMSNGLHRLEGIPDKSNVVMNIFTGGLGLILNIIVIAYGACTGQGAEWFYGSATGLLFAFTYLYSAINTIFDFDQRLYGWFSLFVAINTLPAGILCLTSGYGGNAWYGIIWFLWGVLWLTAFIEINLKKNLGKFVPYLAIFEGIVTAWIPGLLMLWGKW	failed
MLHELFSVYLKMLVLYSPFFVLSCFISLTRGHSSKERKQLAWKVAFAALVASVLLYLFGRAIFGIFGITADAFRIGAGSVLFISALGMAQGKPAVQADNVQQDVTIVPLTIPLTVGPGTIGALLVMGVSQPHWDEKLLAIVSIALASFTVGLVLYLSHGIERLLGDQGLQIVSRLMGLFVCALAAQIIFTGIRGYLLP	failed
MLHLLTLSSLGRDLFNIKMLIVILITIGLITLMTILTYLLEQQVHRRQNRYWTIGAHGAEALSVLISMILLRQIFITLNSGSIISWTYATVQLTILLFSLNTMRNLAVEIINLLMPLFIYGQAIWLGHSTQYLPVFLAMAIILISTVVYITHNYQELHATQWKYLLFQILYSGTWWGVIWSVHPFKLSHTLVIILAFVLYMWLIRLAVNRVQKFFNEVLTFDQQVNYDELTGIRNRASFDTHAREVFAAYQHHQMGPVTMVMFDIDHFKAFNDQYGHLAGDAVLRHVAHFVELELNQRSTHGQIFRYGGEEFVIIFRGISALEAGQIMRTIQRKLKTVPIKFNVQTLNVTVSIGISELQPTDQTFTDWFVRVDDYLYQSKQAGRDQTTVESQLLTD	failed
MLHSSIVLVIKEETMNVAKMYDDVSERYQKLVDDSHYVGPRWISGKLKTLPIEQGSALDLACATGSIGHVVKNHYPDLTIHGLDISSKMVDKARQTNLYQSVSVHNLDEPFSPLFEQTFDLITALGFTEFLAEPQQLLECISRKLTANGRCFISFQYHDPDGQDLPRNTYSGSVVHTAYTESEVEQLCQQAGLEVVSLENVIGYVSGVGYVCRYLMLELKKSHR	failed
MLIERIYDEDLAQASYFIGCQAHNTAVVVDPRRDIAVYLDMAKKNGMEIVGVTETHIHADYLSGTRELAAATNATMYVSGEGGADWQYEFDAERICDGSEIRLGNLVLTAVHTPGHTPEHLSFLLKDGAFADEPGFMLTGDFVFAGDLGRPDLLDEAAGGVDTRFEGARQMFKSLKEKFLTLPDHIQIFPGHGSGSACGKALGSVPSTTLGYERQFAWWGKYLEADDEQGFIDELLEGQPDAPAYFGRMKRQNRQGPAIMGARELLPQLEASDLHDVIVVDTRSADEVHQGTVAGAVNIPAGNSMAKFGSWTVDPEKDSRALVLLAASQIGAMEMWDHMVRVGIDNVAGFITNFDGVDLVAPQTVSPDQLDELEYDLLLDVRNRSEVEEGYIPGALHINGASVLWNLEKLPRDGKIVSYCKSGTRSSIAASTLRNAGFDVVELQGSYDNWVRHNAQLEHHHHHH	not failed
MLIKLTGGTVYDPANGIDGQVRNLFIRDGRIVHSLNGATPDQEYDLRGKVVMAGAIDMHTHIGGGKVTIARNLLPELEHHHHHH	not failed
MLIRKADAQDLDAICRLAAQINRQHHQALPELFLAAADADADRAFWRARLEGEDSVLLVAEREGAVLAFLTAQLQSSPPLPFLQARRICRIGTIVVDEACQGQGIGSRLLAAAEDWGRRQDADELRLEVMQFNQGALAFYARHGLAAQSQIMSKSLAGAAR	failed
MLIRPATTADFDALRAIELAAFETLRAAGAVSGSASASTDQQLQRYLDHGLLDVACDQSGEPIGFCGGYIAESFLHIGEMDVHPAWQRQGVGRRLLTALLEEARARKADGATLTTDRLVPFNAPFYASLGFRPLADDELPAKLREILDAEANMGLDPDRRIAMMLRF	failed
MLIVDTILKPDRFGGIGLFSATRLPKGSLIWIHNPIVDITVTPEQYEALAPTFQALLDKHAYPRDYKAYDGVIEYNADNARFMNHSSRPNTYQDDRRVFTARDVQPGEELTCNYLFFDPRCDVSWNEEPSMNLDAPTG	failed
MLKKIREEFGCIFARDPAAQSFFEILTVYPGVHAVLIHRFSHWLWNHGLHWPARVLSYLARWATGIEIHPGATLGRRLFIDHGMGVVIGETAVIGDDCTLYHGVTLGGTSWQKGKRHPTLGNGVVVGAGAKVLGPITVGDGARIGSNSVVLRTVPAGATVVGIPGHIINPDRRAQEAQRLAIASRLGFDAYGMTPDMPDPVAHAINHMLDHIQALDQQVAKLKEVLRERGIDLEEAPLPDLDDCQLDPGEPQVTVNSSRTGLEHHHHHH	not failed
